In experiment [1] the target is T1, human IL-20 (interleukin-20), recombinant (human, UniProt Q9NYY1 25-176).
T1 construct: Analyte in the BIAcore assay and stimulus (300 pM) in the BaF3 proliferation assay; also called hIL-20; human cytokine IL20
T1 sequence (looked up): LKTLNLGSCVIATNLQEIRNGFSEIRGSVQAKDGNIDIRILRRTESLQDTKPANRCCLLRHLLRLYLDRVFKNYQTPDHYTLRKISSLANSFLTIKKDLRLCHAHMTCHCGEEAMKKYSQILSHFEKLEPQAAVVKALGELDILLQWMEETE
As to the kind of experiment: binding kinetics of CDR mutants; method not named.

Experiment [2] concerns the target T1, human IL-20 (interleukin-20), …. As to the kind of experiment: SPR, BIAcore T100; antibody captured on anti-human IgG CM5 chip, IL-20 as analyte, 1:1 model. As for the experimental part: The human IL-20-binding kinetics of each purified anti-IL-20 antibody was estimated by surface plasmon resonance measurements using the BIAcore T100 biosensor system. The anti-IL-20 Ab was captured on an anti-human IgG immobilized CM5 sensor chip. The immobilized level of anti-human IgG was about 9,000-10,000 RU and the capture level of anti-IL-20 antibody was about 350-400 RU. Binding was carried out at constant flow rates of 30 μL/min of IL-20 at various dilutions in HEPES buffered saline (BIA certified) for 60 seconds. Dissociations were carried out by passing through HEPES buffer for 480 seconds. Regeneration of the surface was carried out by […] 10 mM Glycine pH 2.0/1.5 (50:50) for 40 seconds.
The IL-20 affinity of each of the anti-IL-20 antibodies were calculated from an affinity binding curve fit using the predefined model (1:1 binding) provided by Biacore T100 evaluation software 2.0.

B1: FLB35 (HH12 variant) (antibody, V domains shown)
VH: EVQLQESGGGLVQPGGSLRLSCAASGFTFSDAWMDWVRQAPGKGLEWVGEIRSKANNYATYFAESVKGRFTISRDDSKNSLYLQMNSLKTEDTGVYYCTKLDLRYWFFDVWGQGTLVTVSS
VL: DIQMTQSPLSLSVTPGQPASISCKSSQSLLDYDGKTYLNWYQQKPGQSPQLLIYLVSKLDSGVPDRFSGSGSGTDFTLKISRVEAEDVGVYYCWQSTLFPWTFGQGTKVEIKR
In the case of B1, in experiment [1], the Kd stood at 437 pM, the koff is 0.000431 s⁻¹ and the kon was 988000 M⁻¹ s⁻¹.

B2: FLB35(S) (FLB35 with Ser at CDRL1 position 27E) (antibody, V domains shown)
VH: EVQLQESGGGLVQPGGSLRLSCAASGFTFSDAWMDWVRQAPGKGLEWVGEIRSKANNYATYFAESVKGRFTISRDDSKNSLYLQMNSLKTEDTGVYYCTKLDLRYWFFDVWGQGTLVTVSS
VL: DIQMTQSPLSLSVTPGQPASISCKSSQSLLDSDGKTYLNWYQQKPGQSPQLLIYLVSKLDSGVPDRFSGSGSGTDFTLKISRVEAEDVGVYYCWQSTLFPWTFGQGTKVEIKR
On to B2, for which, in experiment [1], the Kd worked out at 4030 pM, the koff was found to be 0.00283 s⁻¹ and the kon came out at 703000 M⁻¹ s⁻¹.

B3: FLB67 (HH12 variant) (antibody, V domains shown)
VH: EVQLQESGGGLVQPGGSLRLSCAASGFTFSDAWMDWVRQAPGKGLEWVGEIRSKANNYATYFAESVKGRFTISRDDSKNSLYLQMNSLKTEDTGVYYCTKLSLQYWFFDVWGQGTLVTVSS
VL: DIQMTQSPLSLSVTPGQPASISCKSSQSLLDYDGKTYLNWYQQKPGQSPQLLIYQVSKLDSGVPDRFSGSGSGTDFTLKISRVEAEDVGVYYCWQSTHFPWTFGQGTKVEIKR
As for B3, in experiment [1], the Kd turned out to be 803 pM, the koff was 0.000713 s⁻¹ and the kon was determined as 888000 M⁻¹ s⁻¹.

B4: mouse anti-IL-20 monoclonal antibody 7E (antibody, V domains shown)
VH: ELKLEESGGGLVQPGGSMKLSCAASGFTFSDAWMDWVRQSPEKGLEWIAEIRSKANNYATYFAESVKGRFTISRDDSKSGVYLQMNNLRAEDTGIYFCTKLSLRYWFFDVWGAGTTVTVSS
VL: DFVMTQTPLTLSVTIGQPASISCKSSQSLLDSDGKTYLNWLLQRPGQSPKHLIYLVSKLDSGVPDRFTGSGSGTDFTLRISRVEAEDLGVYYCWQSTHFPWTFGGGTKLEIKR
notes: Mouse monoclonal antibody; The BIAcore method captures antibody on anti-human IgG; also called mAb 7E; mAb E7
Take B4: in experiment [2], the Kd was 781 pM, the koff was 0.000711 s⁻¹ and the kon stood at 911000 M⁻¹ s⁻¹.

As a reminder, the Kd is a measure of binding affinity in units of concentration. For orientation: koff means the rate constant with which the complex falls apart. The term kon denotes the rate constant with which the complex forms.

The values are drawn from patent publication US20160068595A1 (DEVELOPMEN CENTER FOR BIOTECHNOLOGY, published 2016).
